# Reference: patent US20120184713
# T1: Peptide4, OPN-ASARM derivative with the other two Ser residues changed to Ala
# T1 chain: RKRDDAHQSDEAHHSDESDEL
# T2: Fat2-3:FLAG (affinity-purified cadherin domains of Drosophila Fat), P33450
# T2 chain: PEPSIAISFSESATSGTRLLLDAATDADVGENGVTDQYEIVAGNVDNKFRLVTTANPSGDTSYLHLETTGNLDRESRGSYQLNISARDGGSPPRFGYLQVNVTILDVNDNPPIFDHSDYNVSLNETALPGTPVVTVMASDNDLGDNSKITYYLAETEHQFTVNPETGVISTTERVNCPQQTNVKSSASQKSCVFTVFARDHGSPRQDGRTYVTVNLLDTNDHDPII
# T3: Peptide3, OPN-ASARM derivative with the three G-CK consensus Ser residues changed to Ala
# T3 chain: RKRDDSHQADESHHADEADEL
# T4: DMP1:FLAG (FLAG epitope-tagged mouse dentin matrix protein 1, affinity purified), O55188
# T4 chain: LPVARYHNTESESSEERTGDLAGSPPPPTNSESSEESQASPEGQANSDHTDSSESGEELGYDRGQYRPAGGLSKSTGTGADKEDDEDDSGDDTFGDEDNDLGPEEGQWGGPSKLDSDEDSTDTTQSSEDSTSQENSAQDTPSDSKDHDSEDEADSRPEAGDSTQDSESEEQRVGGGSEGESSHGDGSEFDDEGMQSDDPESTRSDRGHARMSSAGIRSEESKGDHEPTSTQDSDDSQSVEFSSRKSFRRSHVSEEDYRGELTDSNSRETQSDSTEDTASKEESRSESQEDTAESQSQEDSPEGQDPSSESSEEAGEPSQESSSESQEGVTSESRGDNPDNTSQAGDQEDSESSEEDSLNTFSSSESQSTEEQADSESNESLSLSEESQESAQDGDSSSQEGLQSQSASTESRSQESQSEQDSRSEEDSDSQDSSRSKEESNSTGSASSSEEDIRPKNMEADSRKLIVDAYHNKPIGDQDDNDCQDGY
# T5: BSP:FLAG (FLAG epitope-tagged mouse bone sialoprotein, affinity purified), Q61711
# T5 chain: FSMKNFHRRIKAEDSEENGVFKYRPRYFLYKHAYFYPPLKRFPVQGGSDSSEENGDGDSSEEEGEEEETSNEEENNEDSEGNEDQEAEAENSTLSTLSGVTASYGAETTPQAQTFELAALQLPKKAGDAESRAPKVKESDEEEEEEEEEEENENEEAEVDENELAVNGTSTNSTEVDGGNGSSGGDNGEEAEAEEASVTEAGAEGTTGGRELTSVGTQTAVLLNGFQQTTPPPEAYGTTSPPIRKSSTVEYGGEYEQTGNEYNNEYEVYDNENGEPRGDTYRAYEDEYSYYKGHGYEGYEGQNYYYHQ
# T6: Peptide1, OPN-ASARM peptide (human Osteopontin 115Asp to 132Leu with N-terminal Arg-Lys-Arg)
# T6 chain: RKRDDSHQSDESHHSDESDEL
# T7: Peptide2, OPN-ASARM derivative with all five Ser residues replaced by Ala
# T7 chain: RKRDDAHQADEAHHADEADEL
# B1: FAM20C:V5 (V5-epitope tagged mouse FAM20C, affinity purified from conditioned medium of HEK293T cells) (protein)
# chain: DFSSDPASNLTSHSLEKLPSAAEPVDHAPRGQEPRSPPPRDPAHRPLLRDPGPRPRVPPPGPSGDGSLLAKLFEHPLYQGAVPPLTEDDVLFNVNSDIRFNPKAAENPDWPHEGAEGAEFLPTGEAAVNLYPNWLKFHIGINRYELYSRHNPAIDALLRDLGSQKITSVAMKSGGTQLKLIMTFQNYGQALFKPMKQTREQETPPDFFYFSDYERHNAEIAAFHLDRILDFRRVPPVAGRMINMTKEIRDVTRDKKLWRTFFVSPANNICFYGECSYYCSTEHALCGRPDQIEGSLAAFLPDLSLAKRKTWRNPWRRSYHKRKKAEWEVDPDYCEEVKQTPPYDSGHRILDIMDMTVFDFLMGNMDRHHYETFEKFGNETFIIHLDNGRGFGKYSHDELSILAPLHQCCRIRRSTYLRLQLLAKEEHKLSLLMAESLQHDKVAPVLYQLHLEALDRRLRIVLQAVRDCVEKDGLSSVVEDDLATEHRASTER
# Columns and labels:
# [1] = target: T1, Peptide4, OPN-ASARM derivative with the …
# [2] = target: OPN:FLAG (FLAG epitope-tagged mouse osteopontin, affinity purified), P10923
# [3] = target: T2, Fat2-3:FLAG (affinity-purified cadherin …)
# [4] = target: Myelin Basic Protein (NEB)
# [5] = target: T3, Peptide3, OPN-ASARM derivative with the …
# [6] = target: T4, DMP1:FLAG (FLAG epitope-tagged mouse …)
# [7] = target: T5, BSP:FLAG (FLAG epitope-tagged mouse …)
# [8] = target: dephosphorylated alpha-Casein (Sigma)
# [9] = target: T6, Peptide1, OPN-ASARM peptide (human …)
# [10] = target: T7, Peptide2, OPN-ASARM derivative with all …
# Sequence of OPN:FLAG (FLAG epitope-tagged mouse osteopontin, affinity purified), P10923 (P10923 17-294): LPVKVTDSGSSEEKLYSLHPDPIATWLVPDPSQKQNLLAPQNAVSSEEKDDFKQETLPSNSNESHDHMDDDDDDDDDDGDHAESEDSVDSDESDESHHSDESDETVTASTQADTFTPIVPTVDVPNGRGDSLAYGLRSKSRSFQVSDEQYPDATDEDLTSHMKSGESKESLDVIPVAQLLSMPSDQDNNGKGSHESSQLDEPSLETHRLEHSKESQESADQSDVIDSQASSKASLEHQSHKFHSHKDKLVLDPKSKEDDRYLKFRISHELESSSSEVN
protein,measurement,setting,value
B1,in vitro kinase assay with peptide substrate,[1],a derivative in which the other two Ser residues were changed to Ala (OPN-ASARM^2S-A) was still efficiently phosphorylated by FAM20C
same,in vitro kinase assay (32P transfer),[2],"Transfer of ^32P onto OPN, BSP, and DMP1 was observed in the presence of FAM20C:V5"
same,in vitro kinase assay (32P transfer),[3],"neither Myelin basic protein ... nor cadherin domains of Fat that are substrates for Fj, were detectably phosphorylated by FAM20C"
same,in vitro kinase assay (32P transfer),[4],neither Myelin basic protein ... nor cadherin domains of Fat ... were detectably phosphorylated by FAM20C
same,in vitro kinase assay with peptide substrate,[5],A peptide in which only the three G-CK concensus sites were changed to Ala (OPN-ASARM^3S-A) was phosphorylated much less effectively
same,in vitro kinase assay (32P transfer),[6],"Transfer of ^32P onto OPN, BSP, and DMP1 was observed in the presence of FAM20C:V5"
same,in vitro kinase assay (32P transfer),[7],"Transfer of ^32P onto OPN, BSP, and DMP1 was observed in the presence of FAM20C:V5"
same,"Michaelis constant (Km), in vitro kinase assay",[8],a Michaelis constant (Km) of FAM20C for Casein of 1.5 µM
same,in vitro kinase assay (32P transfer),[8],Dephosphorylated Casein was phosphorylated by purified FAM20C in vitro
same,in vitro kinase assay with peptide substrate,[9],In vitro kinase reactions confirmed that OPN-ASARM is a FAM20C substrate
same,in vitro kinase assay with peptide substrate,[10],a derivative with all five Ser residues replaced by Ala (OPN-ASARM^5S-A) was not phosphorylated
